Data as given in US20230279137A1 (EVOTEC INTERNATIONAL, published 2023).
Residue numbers refer to the chain shown, from its start.

T1: human IFNγ receptor on HEK-Blue IFN-γ cells (human, UniProt P15260 18-489; P38484 22-337)
T1 sequence (looked up) 1: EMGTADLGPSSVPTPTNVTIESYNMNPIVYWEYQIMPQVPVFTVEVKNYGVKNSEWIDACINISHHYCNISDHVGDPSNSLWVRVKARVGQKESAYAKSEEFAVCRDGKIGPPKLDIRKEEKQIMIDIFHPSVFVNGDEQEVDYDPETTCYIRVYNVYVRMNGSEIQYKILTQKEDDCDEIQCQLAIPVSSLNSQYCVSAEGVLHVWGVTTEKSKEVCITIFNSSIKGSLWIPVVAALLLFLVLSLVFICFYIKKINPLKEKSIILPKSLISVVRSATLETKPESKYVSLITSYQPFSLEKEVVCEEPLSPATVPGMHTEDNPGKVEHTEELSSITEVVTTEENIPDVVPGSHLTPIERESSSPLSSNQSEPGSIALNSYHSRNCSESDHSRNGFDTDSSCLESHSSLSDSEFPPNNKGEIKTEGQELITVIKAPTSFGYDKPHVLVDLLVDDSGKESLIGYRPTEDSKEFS
T1 sequence (looked up) 2: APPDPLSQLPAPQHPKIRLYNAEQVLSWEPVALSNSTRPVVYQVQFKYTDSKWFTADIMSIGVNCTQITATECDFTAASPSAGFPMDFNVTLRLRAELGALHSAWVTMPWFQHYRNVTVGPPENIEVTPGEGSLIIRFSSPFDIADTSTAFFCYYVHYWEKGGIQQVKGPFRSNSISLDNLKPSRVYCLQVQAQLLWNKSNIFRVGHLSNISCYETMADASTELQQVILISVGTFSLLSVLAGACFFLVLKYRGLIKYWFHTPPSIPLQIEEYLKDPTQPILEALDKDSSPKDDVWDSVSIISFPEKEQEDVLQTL

T2: human type I IFN receptor on HEK-Blue IFN-α/β cells (human, UniProt P17181 28-557; P48551 27-515)
T2 sequence (looked up) 1: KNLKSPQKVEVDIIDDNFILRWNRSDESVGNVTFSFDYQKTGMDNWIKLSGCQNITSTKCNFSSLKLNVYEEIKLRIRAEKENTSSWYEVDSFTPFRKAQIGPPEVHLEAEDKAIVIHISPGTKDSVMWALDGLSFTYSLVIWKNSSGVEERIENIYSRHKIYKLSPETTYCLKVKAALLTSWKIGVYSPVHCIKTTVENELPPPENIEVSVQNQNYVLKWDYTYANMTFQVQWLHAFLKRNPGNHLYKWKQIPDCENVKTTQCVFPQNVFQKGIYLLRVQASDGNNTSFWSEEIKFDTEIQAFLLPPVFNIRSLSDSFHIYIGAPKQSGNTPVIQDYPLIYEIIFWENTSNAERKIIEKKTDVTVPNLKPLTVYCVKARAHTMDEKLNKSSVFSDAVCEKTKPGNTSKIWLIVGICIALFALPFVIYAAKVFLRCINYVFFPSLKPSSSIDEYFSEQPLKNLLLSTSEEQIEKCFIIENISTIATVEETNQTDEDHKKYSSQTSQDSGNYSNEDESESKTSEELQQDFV
T2 sequence (looked up) 2: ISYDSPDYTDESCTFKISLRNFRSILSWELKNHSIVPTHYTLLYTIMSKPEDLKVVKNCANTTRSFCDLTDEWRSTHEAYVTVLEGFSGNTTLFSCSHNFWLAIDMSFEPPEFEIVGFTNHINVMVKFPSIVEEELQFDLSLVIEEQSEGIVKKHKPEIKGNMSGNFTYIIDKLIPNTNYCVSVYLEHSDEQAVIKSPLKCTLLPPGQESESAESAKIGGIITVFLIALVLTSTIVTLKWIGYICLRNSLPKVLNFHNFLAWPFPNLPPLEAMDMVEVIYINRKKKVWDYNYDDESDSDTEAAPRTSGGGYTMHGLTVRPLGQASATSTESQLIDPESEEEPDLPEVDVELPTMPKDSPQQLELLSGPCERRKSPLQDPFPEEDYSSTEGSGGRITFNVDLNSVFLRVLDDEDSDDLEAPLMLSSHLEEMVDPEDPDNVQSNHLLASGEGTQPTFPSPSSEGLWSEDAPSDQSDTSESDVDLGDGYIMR

B1: IFA42 (antibody, human IgG2, kappa)
light: DIQMTQSPSSVSASVGDRVTITCRASQGIYSWLAWYQQKPGKAPNLLIYTASTLQSGVPSRFSGSGSGTDFTLTISSLQPEDFATYYCQQANIFPLTFGGGTKVEIKRTVAAPSVFIFPPSDEQLKSGTASVVCLLNNFYPREAKVQWKVDNALQSGNSQESVTEQDSKDSTYSLSSTLTLSKADYEKHKVYACEVTHQGLSSPVTKSFNRGECGGGGSGGGGSGGGGSGGGGSQDPYVKEAENLKKYFNAGHSDVADNGTLFLGILKNWKEESDRKIMQSQIVSFYFKLFKNFKDDQSIQKSVETIKEDMNVKFFNSNKKKRDDFEKLTNYSVTDLNVQRKAIHELIQVMAELSPAAKTGKRKRSQMLFRGRRASQ
heavy: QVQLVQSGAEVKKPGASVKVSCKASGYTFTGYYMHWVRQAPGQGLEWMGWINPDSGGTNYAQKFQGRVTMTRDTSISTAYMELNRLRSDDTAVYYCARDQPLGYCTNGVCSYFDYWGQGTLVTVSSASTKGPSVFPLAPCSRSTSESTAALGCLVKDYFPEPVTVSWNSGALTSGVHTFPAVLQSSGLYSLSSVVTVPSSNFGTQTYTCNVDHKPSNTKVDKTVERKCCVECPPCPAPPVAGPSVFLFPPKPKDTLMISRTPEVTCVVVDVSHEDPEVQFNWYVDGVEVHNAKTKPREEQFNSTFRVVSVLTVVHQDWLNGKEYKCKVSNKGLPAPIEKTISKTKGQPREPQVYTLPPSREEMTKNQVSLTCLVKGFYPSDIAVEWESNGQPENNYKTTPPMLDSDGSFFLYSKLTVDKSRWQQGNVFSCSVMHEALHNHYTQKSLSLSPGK
B2: IFA12 (antibody, human IgG2, kappa)
light: DIQMTQSPSSVSASVGDRVTITCRASQGIYSWLAWYQQKPGKAPNLLIYTASTLQSGVPSRFSGSGSGTDFTLTISSLQPEDFATYYCQQANIFPLTFGGGTKVEIKRTVAAPSVFIFPPSDEQLKSGTASVVCLLNNFYPREAKVQWKVDNALQSGNSQESVTEQDSKDSTYSLSSTLTLSKADYEKHKVYACEVTHQGLSSPVTKSFNRGECPAPAMSYNLLGFLQRSSNFQCQKLLWQLNGRLEYCLKDRMNFDIPEEIKQLQQFQKEDAALTIYEMLQNIFAIFRQDSSSTGWNETIVENLLANVYHQINHLKTVLEEKLEKEDFTRGKLMSSLHLKRYYGRILHYLKAKEYSHCAWTIVRVEILRNFYFINRLTGYLRN
heavy: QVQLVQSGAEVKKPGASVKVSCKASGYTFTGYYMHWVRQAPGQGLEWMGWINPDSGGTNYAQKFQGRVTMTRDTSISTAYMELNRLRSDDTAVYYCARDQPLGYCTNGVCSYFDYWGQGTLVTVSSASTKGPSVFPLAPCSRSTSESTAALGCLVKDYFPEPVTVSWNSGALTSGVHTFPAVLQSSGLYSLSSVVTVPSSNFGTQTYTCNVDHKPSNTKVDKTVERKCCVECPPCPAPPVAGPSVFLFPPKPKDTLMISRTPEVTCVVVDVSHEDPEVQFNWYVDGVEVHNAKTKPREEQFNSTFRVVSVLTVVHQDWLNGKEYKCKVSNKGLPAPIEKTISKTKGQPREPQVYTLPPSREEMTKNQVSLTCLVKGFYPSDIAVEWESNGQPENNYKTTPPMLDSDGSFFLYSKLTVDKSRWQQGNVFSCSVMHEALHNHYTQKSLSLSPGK
B3: IFA13 (antibody, human IgG2, kappa)
light: B2 light with C235S
heavy: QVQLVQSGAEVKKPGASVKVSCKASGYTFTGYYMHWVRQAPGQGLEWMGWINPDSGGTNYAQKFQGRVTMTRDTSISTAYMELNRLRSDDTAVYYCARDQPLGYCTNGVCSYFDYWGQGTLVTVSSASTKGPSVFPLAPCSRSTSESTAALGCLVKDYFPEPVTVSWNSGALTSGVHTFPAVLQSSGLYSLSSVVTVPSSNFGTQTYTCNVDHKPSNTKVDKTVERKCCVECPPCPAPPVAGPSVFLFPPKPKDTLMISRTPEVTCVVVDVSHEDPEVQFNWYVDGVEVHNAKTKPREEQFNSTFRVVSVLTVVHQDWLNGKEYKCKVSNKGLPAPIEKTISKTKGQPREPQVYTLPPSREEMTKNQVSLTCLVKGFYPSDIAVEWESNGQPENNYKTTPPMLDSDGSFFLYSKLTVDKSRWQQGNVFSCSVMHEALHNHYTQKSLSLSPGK
B4: IFA8 (antibody, human IgG2, kappa)
heavy: not shown
light: DIQMTQSPSSVSASVGDRVTITCRASQGIYSWLAWYQQKPGKAPNLLIYTASTLQSGVPSRFSGSGSGTDFTLTISSLQPEDFATYYCQQANIFPLTFGGGTKVEIKRTVAAPSVFIFPPSDEQLKSGTASVVCLLNNFYPREAKVQWKVDNALQSGNSQESVTEQDSKDSTYSLSSTLTLSKADYEKHKVYACEVTHQGLSSPVTKSFNRGEC
B5: IFA10 (antibody, human IgG2, kappa)
heavy: not shown
light: B4 light
B6: IFA11 (antibody, human IgG2, kappa)
heavy: not shown
light: B4 light
B7: IFA9 (antibody, human IgG2, kappa)
heavy: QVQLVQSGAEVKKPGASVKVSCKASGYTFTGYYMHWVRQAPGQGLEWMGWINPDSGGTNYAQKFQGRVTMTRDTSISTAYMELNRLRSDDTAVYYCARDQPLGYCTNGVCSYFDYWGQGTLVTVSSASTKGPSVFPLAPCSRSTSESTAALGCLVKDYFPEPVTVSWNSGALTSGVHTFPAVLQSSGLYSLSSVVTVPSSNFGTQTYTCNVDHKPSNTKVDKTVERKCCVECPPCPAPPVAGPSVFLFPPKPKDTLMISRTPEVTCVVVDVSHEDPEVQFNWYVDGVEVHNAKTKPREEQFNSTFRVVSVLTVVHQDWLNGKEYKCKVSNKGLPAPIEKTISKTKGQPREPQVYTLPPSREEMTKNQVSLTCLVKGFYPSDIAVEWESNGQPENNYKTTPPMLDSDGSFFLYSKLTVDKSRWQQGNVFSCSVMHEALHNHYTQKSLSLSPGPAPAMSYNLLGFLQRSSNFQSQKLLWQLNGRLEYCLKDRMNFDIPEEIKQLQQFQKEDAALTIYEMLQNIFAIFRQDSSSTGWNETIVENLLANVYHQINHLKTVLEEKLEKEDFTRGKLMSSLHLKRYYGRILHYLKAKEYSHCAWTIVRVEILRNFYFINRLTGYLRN
light: B4 light
B8: IFA20 (antibody, human IgG2, kappa)
light: DIQMTQSPSSVSASVGDRVTITCRASQGIYSWLAWYQQKPGKAPNLLIYTASTLQSGVPSRFSGSGSGTDFTLTISSLQPEDFATYYCQQANIFPLTFGGGTKVEIKRTVAAPSVFIFPPSDEQLKSGTASVVCLLNNFYPREAKVQWKVDNALQSGNSQESVTEQDSKDSTYSLSSTLTLSKADYEKHKVYACEVTHQGLSSPVTKSFNRGECAEAAAKEAAAKAAEAAAKEAAAKAMSYNLLGFLQRSSNFQSQKLLWQLNGRLEYCLKDRMNFDIPEEIKQLQQFQKEDAALTIYEMLQNIFAIFRQDSSSTGWNETIVENLLANVYHQINHLKTVLEEKLEKEDFTRGKLMSSLHLKRYYGRILHYLKAKEYSHCAWTIVRVEILRNFYFINRLTGYLRN
heavy: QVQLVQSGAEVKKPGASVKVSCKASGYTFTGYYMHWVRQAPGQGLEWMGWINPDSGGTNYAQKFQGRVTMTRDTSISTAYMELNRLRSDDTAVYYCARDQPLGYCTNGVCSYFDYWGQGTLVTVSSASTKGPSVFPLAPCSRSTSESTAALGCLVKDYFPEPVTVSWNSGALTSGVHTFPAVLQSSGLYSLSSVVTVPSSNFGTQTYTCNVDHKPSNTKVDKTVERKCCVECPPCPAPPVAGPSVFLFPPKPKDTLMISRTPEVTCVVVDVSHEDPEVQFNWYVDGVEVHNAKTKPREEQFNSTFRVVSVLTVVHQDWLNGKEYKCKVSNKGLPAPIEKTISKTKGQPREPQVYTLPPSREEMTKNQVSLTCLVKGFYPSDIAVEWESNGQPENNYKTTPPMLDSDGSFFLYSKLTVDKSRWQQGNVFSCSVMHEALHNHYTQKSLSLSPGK
B9: IFA1 (antibody, human IgG2, kappa)
light: DIQMTQSPSSVSASVGDRVTITCRASQGIYSWLAWYQQKPGKAPNLLIYTASTLQSGVPSRFSGSGSGTDFTLTISSLQPEDFATYYCQQANIFPLTFGGGTKVEIKRTVAAPSVFIFPPSDEQLKSGTASVVCLLNNFYPREAKVQWKVDNALQSGNSQESVTEQDSKDSTYSLSSTLTLSKADYEKHKVYACEVTHQGLSSPVTKSFNRGECAEAAAKEAAAKAMSYNLLGFLQRSSNFQCQKLLWQLNGRLEYCLKDRMNFDIPEEIKQLQQFQKEDAALTIYEMLQNIFAIFRQDSSSTGWNETIVENLLANVYHQINHLKTVLEEKLEKEDFTRGKLMSSLHLKRYYGRILHYLKAKEYSHCAWTIVRVEILRNFYFINRLTGYLRN
heavy: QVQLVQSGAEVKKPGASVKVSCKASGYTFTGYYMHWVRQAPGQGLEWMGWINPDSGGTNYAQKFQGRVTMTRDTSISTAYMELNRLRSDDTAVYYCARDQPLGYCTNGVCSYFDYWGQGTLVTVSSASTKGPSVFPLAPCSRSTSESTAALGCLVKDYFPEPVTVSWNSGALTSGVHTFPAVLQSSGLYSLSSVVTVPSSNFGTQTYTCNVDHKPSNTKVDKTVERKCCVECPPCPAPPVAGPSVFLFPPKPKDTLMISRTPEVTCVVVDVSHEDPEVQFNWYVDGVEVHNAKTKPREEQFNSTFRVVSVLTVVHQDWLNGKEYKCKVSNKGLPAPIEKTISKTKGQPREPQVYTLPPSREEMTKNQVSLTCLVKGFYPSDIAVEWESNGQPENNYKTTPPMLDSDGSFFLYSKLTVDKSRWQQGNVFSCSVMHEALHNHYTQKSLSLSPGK
B10: IFA2 (antibody, human IgG2, kappa)
light: B9 light with C243S
heavy: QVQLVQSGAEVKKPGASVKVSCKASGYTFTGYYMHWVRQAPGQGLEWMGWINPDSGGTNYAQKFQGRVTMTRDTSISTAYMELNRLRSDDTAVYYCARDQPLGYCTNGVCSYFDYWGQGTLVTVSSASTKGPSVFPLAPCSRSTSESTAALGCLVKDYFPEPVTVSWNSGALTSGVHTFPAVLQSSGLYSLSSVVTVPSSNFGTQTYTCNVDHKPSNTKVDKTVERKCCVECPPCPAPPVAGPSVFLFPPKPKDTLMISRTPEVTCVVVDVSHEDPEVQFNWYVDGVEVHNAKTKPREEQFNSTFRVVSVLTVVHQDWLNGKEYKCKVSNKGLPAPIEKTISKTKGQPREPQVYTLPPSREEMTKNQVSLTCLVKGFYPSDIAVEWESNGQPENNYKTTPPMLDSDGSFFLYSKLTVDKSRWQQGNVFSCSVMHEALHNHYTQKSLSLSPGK
B11: IFA19 (antibody, human IgG2, kappa)
light: DIQMTQSPSSVSASVGDRVTITCRASQGIYSWLAWYQQKPGKAPNLLIYTASTLQSGVPSRFSGSGSGTDFTLTISSLQPEDFATYYCQQANIFPLTFGGGTKVEIKRTVAAPSVFIFPPSDEQLKSGTASVVCLLNNFYPREAKVQWKVDNALQSGNSQESVTEQDSKDSTYSLSSTLTLSKADYEKHKVYACEVTHQGLSSPVTKSFNRGECSGGTSGSTSGTGSMSYNLLGFLQRSSNFQSQKLLWQLNGRLEYCLKDRMNFDIPEEIKQLQQFQKEDAALTIYEMLQNIFAIFRQDSSSTGWNETIVENLLANVYHQINHLKTVLEEKLEKEDFTRGKLMSSLHLKRYYGRILHYLKAKEYSHCAWTIVRVEILRNFYFINRLTGYLRN
heavy: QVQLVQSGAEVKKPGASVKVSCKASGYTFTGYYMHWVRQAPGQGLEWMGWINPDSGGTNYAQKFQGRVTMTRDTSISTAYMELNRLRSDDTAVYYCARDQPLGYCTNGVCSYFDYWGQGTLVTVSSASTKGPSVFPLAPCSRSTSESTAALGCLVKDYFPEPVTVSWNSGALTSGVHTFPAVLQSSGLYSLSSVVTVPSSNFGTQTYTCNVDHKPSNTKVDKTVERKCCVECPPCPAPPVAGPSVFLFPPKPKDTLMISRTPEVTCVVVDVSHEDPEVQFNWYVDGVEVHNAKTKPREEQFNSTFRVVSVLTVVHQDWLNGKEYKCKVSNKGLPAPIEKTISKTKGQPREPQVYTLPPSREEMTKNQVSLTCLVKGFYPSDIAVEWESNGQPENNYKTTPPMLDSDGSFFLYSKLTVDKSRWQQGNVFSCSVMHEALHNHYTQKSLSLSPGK
B12: agonistic anti-CD40 antibody CP870,893 (antibody, human IgG2, kappa)
heavy: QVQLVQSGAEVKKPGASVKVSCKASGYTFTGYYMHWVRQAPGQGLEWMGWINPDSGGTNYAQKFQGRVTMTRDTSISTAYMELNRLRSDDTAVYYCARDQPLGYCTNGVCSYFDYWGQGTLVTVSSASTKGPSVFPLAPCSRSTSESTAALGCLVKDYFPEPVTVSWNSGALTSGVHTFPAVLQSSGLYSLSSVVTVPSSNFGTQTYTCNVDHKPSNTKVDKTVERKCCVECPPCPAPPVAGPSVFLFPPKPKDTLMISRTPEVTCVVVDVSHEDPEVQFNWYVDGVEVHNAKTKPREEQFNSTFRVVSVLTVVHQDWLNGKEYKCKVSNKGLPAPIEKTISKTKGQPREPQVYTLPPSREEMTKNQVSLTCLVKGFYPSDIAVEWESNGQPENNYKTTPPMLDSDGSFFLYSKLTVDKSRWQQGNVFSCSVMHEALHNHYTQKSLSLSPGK
light: B4 light

target: T3, human CD40 (human, UniProt P25942 21-277); experiment: cell-based or functional assay
T3 sequence (P25942 21-277): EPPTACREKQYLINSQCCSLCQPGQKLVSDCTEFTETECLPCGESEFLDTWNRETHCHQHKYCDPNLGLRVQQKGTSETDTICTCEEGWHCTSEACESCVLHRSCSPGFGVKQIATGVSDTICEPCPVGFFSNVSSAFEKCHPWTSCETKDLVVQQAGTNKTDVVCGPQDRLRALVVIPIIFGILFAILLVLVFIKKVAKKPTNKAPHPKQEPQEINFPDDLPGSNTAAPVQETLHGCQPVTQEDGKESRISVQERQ

| CD40 EC50 (ng/mL), NFκB-SEAP reporter in HEK-Blue CD40L cells | Binder |
| --- | --- |
| 65.6 ng/mL | B1 |

target: T1, human IFNγ receptor on HEK-Blue IFN-γ …; experiment: cell-based or functional assay

| IFNγ EC50 (ng/mL), reporter in HEK-Blue IFNγ cells | Binder |
| --- | --- |
| 15.4 ng/mL | B1 |

target: T2, human type I IFN receptor on HEK-Blue …; experiment: cell-based or functional assay

| IFNβ EC50 (ng/mL), SEAP reporter in HEK-Blue IFN-α/β cells | Binder |
| --- | --- |
| 3.64 ng/mL | B2 |
| 0.7 ng/mL | B3 |
| 2.9 ng/mL | B4 |
| 4.5 ng/mL | B5 |
| 1.78 ng/mL | B6 |
| 0.7 ng/mL | B7 |
| 2.34 ng/mL | B8 |
| 1.64 ng/mL | B9 |
| 0.14 ng/mL | B10 |
| 1.3 ng/mL | B11 |

target: T3, human CD40; experiment: cell-based or functional assay; remark: another data set of the same source

| CD40 EC50 (ng/mL), NFκB-SEAP reporter in HEK-Blue CD40L cells | Binder |
| --- | --- |
| 105 ng/mL | B2 |
| 192 ng/mL | B3 |
| 39.7 ng/mL | B4 |
| 26.5 ng/mL | B5 |
| 42.8 ng/mL | B6 |
| 42.6 ng/mL | B7 |
| 182 ng/mL | B8 |
| 74.1 ng/mL | B9 |
| 111 ng/mL | B10 |
| 110 ng/mL | B11 |

target: T3, human CD40; experiment: cell-based or functional assay; remark: another data set of the same source

| EC50 for agonistic CD40, HEK-Blue CD40L cells, experiment of FIG. 3 | EC50 on CD40 pathway, HEK-Blue CD40L cells | mean EC50 for agonistic CD40, HEK-Blue CD40L cells | Binder |
| --- | --- | --- | --- |
| 0.057 µg/mL | 0.03 to 0.08 µg/mL | 0.048 µg/mL | B12 |
